# Assays:
# P. aeruginosa [1] = assay: Time-kill assay of GN lysin activity; type: cell-based, Pseudomonas aeruginosa; settings: lysin 10 μg/mL, T = 0 7.8; for Log10 CFU/mL T = 3 hr: buffer control 7.2, limit of detection 3.7; for Log10 CFU/mL T = l hr: buffer control 7.7
# Procedure: All treatments were incubated at 37° C. with aeration.
# [2] = system: carbapenem-resistant clinical strain, WC-452; assay: Checkerboard assay to examine synergy with antibiotics in CAA/HuS; type: cell-based, P. aeruginosa; settings: for FICI, Amikacin: lysin + amikacin; for FICI, Azithromycin: lysin + azithromycin; for FICI, Aztreonam: lysin + aztreonam; for FICI, Ciprofloxacin: lysin + ciprofloxacin; for FICI, Colistin: lysin + colistin; for FICI, Fosfomycin: lysin + fosfomycin; for FICI, Gentamicin: lysin + gentamicin; for FICI, Imipenem: lysin + imipenem; for FICI, Meropenem: lysin + meropenem; for FICI, Piperacillin: lysin + piperacillin; for FICI, Rifampicin: lysin + rifampicin; for FICI, Tobramycin: lysin + tobramycin
# Procedure: Fractional inhibitor concentration index (FICI) values were determined for all combinations; values of <0.5 indicate synergy.
# (§1) The checkerboard assays is based on a modification of the CLSI method for MIC determination by broth microdilution (26, 29). Checkerboards were constructed by first preparing columns of a 96-well polypropylene microtiter plate, in which each well had the same amount of antibiotic diluted 2-fold along the horizontal axis. […] Summation fractional inhibitory concentrations (ΣFICs) were calculated for each drug and the minimum ΣFIC value (ΣFICmin) was used to determine synergy. ΣFICs were calculated as follows: ΣFIC=FIC A+FIC B, where FIC A is the MIC of each antibiotic in the combination/MIC of each antibiotic alone, and FIC B is the MIC of each GN lysin in the combination/MIC of each GN lysin alone. The combination is considered synergistic when the ΣFIC is ≤0.5, strongly additive when the ΣFIC is >0.5 to <1, additive with the ΣFIC is 1−<2, and antagonistic when the ΣFIC is ≥2.
# P. aeruginosa [3] = assay: Minimal inhibitory concentration (MIC), modified CLSI broth microdilution in CAA or CAA/HuS; type: cell-based, Pseudomonas aeruginosa; settings: for MIC (μg/mL) in CAA: CAA media; for MIC (μg/mL in CAA/HuS) / MIC value in CAA/HuS: CAA supplemented with 25% human serum
# [4] = system: P. aeruginosa strain ATCC 17647; assay: Minimal Biofilm Eradicating Concentration (MBEC), Calgary Biofilm Device; type: cell-based, Pseudomonas aeruginosa; settings: 24 h biofilm, 24 h treatment; minimum concentration removing >95% of biofilm biomass (crystal violet)
# Excerpt: All samples were examined in triplicate.
# [5] = system: carbapenem-resistant P. aeruginosa strains; assay: Resensitization of carbapenem-resistant clinical strains using carbapenems in combination with lysins; type: cell-based
# Procedure: as §1
# Up to seven carbapenem-resistant isolates were assessed. […] See Clinical and Laboratory Standards Institute (CLSI), CLSI. […] M100 Performance Standards for Antimicrobial Susceptibility Testing; 29th Edition. Clinical and Laboratory Standards Institute, Wayne, Pa.
# [6] = CAA/HuS, ‡ indicates bactericidal activity
# [7] = HEPES buffer, ‡ indicates bactericidal activity
molecule,measurement,setting,value
"GN37: Native lysin, WP_014102102.1/VanY, SEQ ID NO: 12; first disclosed in WO/2017/049233 (protein, listed as Micavibrio aeruginosavorus) MTYTLSKRSLDNLKGVHPDLVAVVHRAIQLTPVDFAVIEGLRSVSRQKELVAAGASKTMNSRHLTGHAVDLAAYVNGIRWDWPLYDAIAVAVKAAAKELGVAIVWGGDWTTFKDGPHFELDRSKYR",Log10 CFU/mL T = 3 hr,P. aeruginosa [1]; [6],<3.7‡ Log10 CFU/mL
same,Log10 CFU/mL T = l hr,P. aeruginosa [1]; CAA/HuS,6.2 Log10 CFU/mL
same,Log10 CFU/mL T = 3 hr,P. aeruginosa [1]; [7],<3.7‡ Log10 CFU/mL
same,Log10 CFU/mL T = l hr,P. aeruginosa [1]; [7],6.3 Log10 CFU/mL
same,synergy with antibiotics in the checkerboard assay,[2],synergize with a range of antibiotics
same,"FICI, Amikacin",[2],0.125
same,"FICI, Azithromycin",[2],0.188
same,"FICI, Aztreonam",[2],0.531
same,"FICI, Ciprofloxacin",[2],0.281
same,"FICI, Colistin",[2],0.156
same,"FICI, Fosfomycin",[2],0.313
same,"FICI, Gentamicin",[2],0.313
same,"FICI, Imipenem",[2],0.313
same,"FICI, Meropenem",[2],0.500
same,"FICI, Piperacillin",[2],0.375
same,"FICI, Rifampicin",[2],0.281
same,"FICI, Tobramycin",[2],0.156
same,MIC (μg/mL) in CAA,P. aeruginosa [3],>128 µg/mL
same,MIC (μg/mL in CAA/HuS),P. aeruginosa [3],32 µg/mL
same,MIC value in CAA/HuS,P. aeruginosa [3],32 µg/mL
same,MBEC,[4],0.25 µg/mL
"GN92: Modified GN4, N-terminal peptide KFFKFFKFFK with linker, SEQ ID NO: 7 (protein) KFFKFFKFFKAGAGAGAGAGAGAGAGASMRTSQRGIDLIKSFEGLRLSAYQDSVGVWTIGYGTTRGVTRYMTITVEQAERMLSNDIQRFEPELDRLAKVPLNQNQWDALMSFVYNLGAANLASSTLLKLLNKGDYQGAADQFPRWVNAGGKRLDGLVKRRAAERALFLEPLS",Log10 CFU/mL T = 3 hr,P. aeruginosa [1]; [6],<3.7‡ Log10 CFU/mL
same,Log10 CFU/mL T = l hr,P. aeruginosa [1]; CAA/HuS,6.2 Log10 CFU/mL
same,Log10 CFU/mL T = 3 hr,P. aeruginosa [1]; [7],<3.7‡ Log10 CFU/mL
same,Log10 CFU/mL T = l hr,P. aeruginosa [1]; [7],5.7 Log10 CFU/mL
same,synergy with antibiotics in the checkerboard assay,[2],synergize with a range of antibiotics
same,"FICI, Amikacin",[2],0.375
same,"FICI, Azithromycin",[2],0.063
same,"FICI, Aztreonam",[2],0.188
same,"FICI, Ciprofloxacin",[2],0.281
same,"FICI, Colistin",[2],0.094
same,"FICI, Fosfomycin",[2],0.500
same,"FICI, Gentamicin",[2],0.375
same,"FICI, Imipenem",[2],0.125
same,"FICI, Meropenem",[2],0.375
same,"FICI, Piperacillin",[2],0.500
same,"FICI, Rifampicin",[2],0.094
same,"FICI, Tobramycin",[2],0.500
same,MIC (μg/mL) in CAA,P. aeruginosa [3],32 µg/mL
same,MIC (μg/mL in CAA/HuS),P. aeruginosa [3],4 µg/mL
same,MIC value in CAA/HuS,P. aeruginosa [3],4 µg/mL
same,MBEC,[4],0.5 µg/mL
"GN121: Modified GN37, C-terminal peptide RKKTRKRLKKIGKVLKWI, SEQ ID NO: 13 (protein) MTYTLSKRSLDNLKGVHPDLVAVVHRAIQLTPVDFAVIEGLRSVSRQKELVAAGASKTMNSRHLTGHAVDLAAYVNGIRWDWPLYDAIAVAVKAAAKELGVAIVWGGDWTTFKDGPHFELDRSKYRRKKTRKRLKKIGKVLKWI",Log10 CFU/mL T = 3 hr,P. aeruginosa [1]; [6],<3.7‡ Log10 CFU/mL
same,Log10 CFU/mL T = l hr,P. aeruginosa [1]; CAA/HuS,7.4 Log10 CFU/mL
same,Log10 CFU/mL T = 3 hr,P. aeruginosa [1]; [7],<3.7‡ Log10 CFU/mL
same,Log10 CFU/mL T = l hr,P. aeruginosa [1]; [7],<3.7‡ Log10 CFU/mL
same,synergy with antibiotics in the checkerboard assay,[2],synergize with a range of antibiotics
same,"FICI, Amikacin",[2],0.375
same,"FICI, Azithromycin",[2],0.188
same,"FICI, Aztreonam",[2],0.625
same,"FICI, Ciprofloxacin",[2],0.313
same,"FICI, Colistin",[2],0.375
same,"FICI, Fosfomycin",[2],0.375
same,"FICI, Gentamicin",[2],0.375
same,"FICI, Imipenem",[2],0.375
same,"FICI, Meropenem",[2],0.313
same,"FICI, Piperacillin",[2],0.375
same,"FICI, Rifampicin",[2],0.313
same,"FICI, Tobramycin",[2],0.188
same,MIC (μg/mL) in CAA,P. aeruginosa [3],0.5 µg/mL
same,MIC (μg/mL in CAA/HuS),P. aeruginosa [3],0.5 µg/mL
same,MIC value in CAA/HuS,P. aeruginosa [3],0.5 µg/mL
same,GN121 Alone,"[5]; isolate PA19, MIC of GN121 alone (imipenem checkerboard)",1 µg/mL
same,GN121 Alone,"[5]; isolate PA19, MIC of GN121 alone (meropenem checkerboard)",2 µg/mL
same,GN121 Combination,"[5]; isolate PA19, MIC of GN121 in combination with imipenem",0.125 µg/mL
same,GN121 Combination,"[5]; isolate PA19, MIC of GN121 in combination with meropenem",0.5 µg/mL
same,FICI,"[5]; isolate PA19, imipenem + GN121",0.155
same,FICI,"[5]; isolate PA19, meropenem + GN121",0.281
same,GN121 Alone,"[5]; isolate PA20, MIC of GN121 alone (imipenem checkerboard)",1 µg/mL
same,GN121 Alone,"[5]; isolate PA20, MIC of GN121 alone (meropenem checkerboard)",2 µg/mL
same,GN121 Combination,"[5]; isolate PA20, MIC of GN121 in combination with imipenem",0.25 µg/mL
same,GN121 Combination,"[5]; isolate PA20, MIC of GN121 in combination with meropenem",0.5 µg/mL
same,FICI,"[5]; isolate PA20, imipenem + GN121",0.265
same,FICI,"[5]; isolate PA20, meropenem + GN121",0.313
same,GN121 Alone,"[5]; isolate PA21, MIC of GN121 alone (imipenem checkerboard)",1 µg/mL
same,GN121 Alone,"[5]; isolate PA21, MIC of GN121 alone (meropenem checkerboard)",1 µg/mL
same,GN121 Combination,"[5]; isolate PA21, MIC of GN121 in combination with imipenem",0.125 µg/mL
same,GN121 Combination,"[5]; isolate PA21, MIC of GN121 in combination with meropenem",0.125 µg/mL
same,FICI,"[5]; isolate PA21, imipenem + GN121",0.155
same,FICI,"[5]; isolate PA21, meropenem + GN121",0.188
same,GN121 Alone,"[5]; isolate PA22, MIC of GN121 alone (imipenem checkerboard)",2 µg/mL
same,GN121 Alone,"[5]; isolate PA22, MIC of GN121 alone (meropenem checkerboard)",1 µg/mL
same,GN121 Combination,"[5]; isolate PA22, MIC of GN121 in combination with imipenem",0.25 µg/mL
same,GN121 Combination,"[5]; isolate PA22, MIC of GN121 in combination with meropenem",0.25 µg/mL
same,FICI,"[5]; isolate PA22, imipenem + GN121",0.188
same,FICI,"[5]; isolate PA22, meropenem + GN121",0.313
same,GN121 Alone,"[5]; isolate PA23, MIC of GN121 alone (imipenem checkerboard)",1 µg/mL
same,GN121 Alone,"[5]; isolate PA23, MIC of GN121 alone (meropenem checkerboard)",2 µg/mL
same,GN121 Combination,"[5]; isolate PA23, MIC of GN121 in combination with imipenem",0.25 µg/mL
same,GN121 Combination,"[5]; isolate PA23, MIC of GN121 in combination with meropenem",0.5 µg/mL
same,FICI,"[5]; isolate PA23, imipenem + GN121",0.257
same,FICI,"[5]; isolate PA23, meropenem + GN121",0.375
same,GN121 Alone,"[5]; isolate PA24, MIC of GN121 alone (imipenem checkerboard)",1 µg/mL
same,GN121 Alone,"[5]; isolate PA24, MIC of GN121 alone (meropenem checkerboard)",1 µg/mL
same,GN121 Combination,"[5]; isolate PA24, MIC of GN121 in combination with imipenem",0.125 µg/mL
same,GN121 Combination,"[5]; isolate PA24, MIC of GN121 in combination with meropenem",0.125 µg/mL
same,FICI,"[5]; isolate PA24, imipenem + GN121",0.155
same,FICI,"[5]; isolate PA24, meropenem + GN121",0.156
same,GN121 Alone,"[5]; isolate WC-452, MIC of GN121 alone (meropenem checkerboard)",1 µg/mL
same,GN121 Combination,"[5]; isolate WC-452, MIC of GN121 in combination with meropenem",0.06 µg/mL
same,FICI,"[5]; isolate WC-452, meropenem + GN121",0.123
same,resensitization of carbapenem-resistant isolates to IPM and MEM,"[5]; synergistic combinations with imipenem or meropenem, breakpoints ≤2 sensitive, 4 intermediate, ≥8 resistant",reductions of IPM and MEM MICS to below breakpoint values
same,MBEC,[4],0.25 µg/mL
"GN147: Modified GN3, amino acid substitutions (R101D, R117H), SEQ ID NO: 5 (protein) MRTSQRGLSLIKSFEGLRLQAYQDSVGVWTIGYGTTRGVKAGMKISKDQAERMLLNDVQRFEPEVERLIKVPLNQDQWDALMSFTYNLGAANLESSTLRDLLNAGNYAAAAEQFPHWNKAGGQVLAGLTRRRAAERELFLGAA",Log10 CFU/mL T = 3 hr,P. aeruginosa [1]; [6],4.2‡ Log10 CFU/mL
same,Log10 CFU/mL T = l hr,P. aeruginosa [1]; CAA/HuS,6.5 Log10 CFU/mL
same,Log10 CFU/mL T = 3 hr,P. aeruginosa [1]; [7],<3.7‡ Log10 CFU/mL
same,Log10 CFU/mL T = l hr,P. aeruginosa [1]; [7],<3.7‡ Log10 CFU/mL
same,synergy with antibiotics in the checkerboard assay,[2],synergize with a range of antibiotics
same,"FICI, Amikacin",[2],0.375
same,"FICI, Azithromycin",[2],0.250
same,"FICI, Aztreonam",[2],0.188
same,"FICI, Ciprofloxacin",[2],0.281
same,"FICI, Colistin",[2],0.188
same,"FICI, Fosfomycin",[2],0.250
same,"FICI, Gentamicin",[2],0.375
same,"FICI, Imipenem",[2],0.375
same,"FICI, Meropenem",[2],0.375
same,"FICI, Piperacillin",[2],0.188
same,"FICI, Rifampicin",[2],0.281
same,"FICI, Tobramycin",[2],0.5
same,MIC (μg/mL) in CAA,P. aeruginosa [3],2 µg/mL
same,MIC (μg/mL in CAA/HuS),P. aeruginosa [3],4 µg/mL
same,MIC value in CAA/HuS,P. aeruginosa [3],4 µg/mL
same,MBEC,[4],0.25 µg/mL

# Source: patent US20220160843A1 (priority 2019, published 2022)
